Experimental data from patent US11572572B2, “A138T mutation-containing plant EPSPS mutant, and encoding gene and application thereof” (GEVOTO LLC, priority 2017, dated 2023).
Residue numbers refer to the chain shown, from its start.

B1: T1: Triticum aestivum EPSPS mutant containing G113(96)A and P118(101)S (SEQ ID NO: 4), gene SEQ ID NO: 21; Control Group 2 of Example 7 (protein)
chain: MATSVAAPAAPAGAEEVVLQPIREISGAVQLPGSKSLSNRILLLSALSEGTTVVDNLLNSEDVHYMLEALEALGLSVEADKVAKRAVVVGCGGRFPVEKDAKEEVKLFLGNAATAMRSLTAAVVAAGGNATYVLDGVPRMRERPIGDLVVGLQQLGADVDCFLGTNCPPVRINGKGGLPGGKVKLSGSISSQYLSSLLMAAPLALEDVEIEIIDKLISVPYVEMTLKLMEHFGVTAEHSDSWDRFYIKGGQKYKSPGNAYVEGDASSASYFLAGAAITGGTVTVEGCGTTSLQGDVKFAEVLEMMGAKVTWTDTSVTVTGPPRQPFGRKHLKAVDVNMNKMPDVAMTLAVVALFADGPTAIRDVASWRVKETERMVAIRTELTKLGATVEEGPDYCIITPPEKLNITAIDTYDDHRMAMAFSLAACAEVPVTIRDPGCTRKTFPNYFDVLSTFVKN
modifications: Triticum aestivum EPSPS mutant with mutations G113(96)A and P118(101)S
B2: R0: wild-type Oryza sativa EPSPS (SEQ ID NO: 5), encoding gene SEQ ID NO: 14; control group of Example 5 (protein, listed as Oryza sativa)
chain: MASNAAAAAAKAEEIVLQPIREISGAVQLPGSKSLSNRILLLSALSEGTTVVDNLLNSEDVHYMLEALKALGLSVEADKVAKRAVVVGCGGKFPVEKDAKEEVQLFLGNAGTAMRPLTAAVTAAGGNATYVLDGVPRMRERPIGDLVVGLKQLGADVDCFLGTECPPVRVKGIGGLPGGKVKLSGSISSQYLSALLMAAPLALGDVEIEIIDKLISIPYVEMTLRLMERFGVKAEHSDSWDRFYIKGGQKYKSPGNAYVEGDASSASYFLAGAAITGGTVTVQGCGTTSLQGDVKFAEVLEMMGAKVTWTDTSVTVTGPPREPYGKKHLKAVDVNMNKMPDVAMTLAVVALFADGPTAIRDVASWRVKETERMVAIRTELTKLGASVEEGPDYCIITPPEKLNITAIDTYDDHRMAMAFSLAACADVPVTIRDPGCTRKTFPNYFDVLSTFVRN
B3: R1: Oryza sativa EPSPS mutant I with A155(138)T mutation (SEQ ID NO: 6), encoding gene SEQ ID NO: 15 (protein)
chain: B2 chain with A155T
modifications: Oryza sativa EPSPS mutant with mutation A155(138)T

Columns and labels:
[1] = system: transgenic rice seedlings; experiment: Glyphosate resistance of EPSPS mutants in transgenic rice sprayed with glyphosate (Example 8); assay type: in vivo, rice (Nipponbare); settings: for glyphosate resistance of transformed rice seedlings (in words): after spraying with 1× glyphosate
Source text: The glyphosate resistance of the EPSPS mutants of the above examples in transgenic rice was detected by the following method.
Plasmids of monoclonal resistant strain comprising pADV5-EPSPS of Examples 1-4 (containing the EPSPS mutant genes) were extracted in accordance with a conventional method. They were subjected to double enzymatic digestion with Pacl and BstEII to recover small fragments, and then the small fragments were ligated, using T4 DNA ligase, to a pGVP1 vector subjected to double enzymatic digestion in the same manner, to obtain a pGVP1-EPSPS vector having a structure as shown in FIG. 8.
The pGVP1-EPSPS vector was transformed into EHA105 (Agrobacterium tumefaciens) competent cells, and single clones were picked out for colony PCR detection to obtain positive strains. Then, the positive strains were inoculated into and propagated in 1 mL of a YEP medium containing 50 μg·mL^−1 kanamycin and 50 μg·mL^−1 rifampicin, and stored at −80° C. or used in subsequent experiments.
400 ul of a strain containing the target gene vector stored at −80° C. was added to a culture dish with a solid medium containing YEP+50 μg/mL rifampicin+50 μg/mL kanamycin and cultured in the dark at 28° C. for 24 hours, and then the bacterium was added to an infection medium and adjusted to OD=0.2 as an infection solution.
Disinfection and Pre-culture: seeds of mature rice (Nipponbare) were manually dehulled. Full seeds with no bacterial plaques were selected and disinfected in accordance with the following steps: the seeds were placed in a 50 ml sterile centrifuge tube and disinfected with the added 70% ethanol in water for 30 seconds, ethanol solution was poured out, and the seeds were washed once with sterile water; 10 to 20 ml of 2.6% sodium hypochlorite solution was added to soak and disinfect the seeds for 20 minutes. The sodium hypochlorite solution was poured out, and the seeds were soaked and washed with sterile water for 6 or 7 times, for 3 minutes each time.
Induction and Subculture: the seeds were placed on and blotted with sterile filter paper, and the mature embryos were placed in an induction medium, with 12 embryos per dish. After the operation was completed, the culture dishes were sealed with parafilm and underwent culturing in the dark at 30° C. for 21 to 28 days. Callus tissue was transferred to a fresh medium and continued to be cultured for about 7 to 14 days. Spherical callus tissue with a dimension of 1 to 2 mm was taken as an infection receptor.
The callus tissue was placed into a centrifuge tube or culture cup, infected in the prepared Agrobacterium suspension added thereto for 10 minutes, and shaken several times during the period; the bacterial solution was poured out, the callus tissue was taken out and placed on sterile filter paper for absorbing the bacterial solution from its surface (for about 30 minutes); the callus tissue was placed on sterile filter paper in culture dishes and cultured in the dark at 25° C. for 2 or 3 days.
Recovery Culture: the co-cultured callus tissue was inoculated on a recovery medium and cultured in the dark at 30° C. for 5 to 7 days.
Primary Screening: the callus was transferred to screening medium 1 (51) and cultured in the dark at 30° C. for 14 days.
Secondary Screening: the callus was then transferred to screening medium 2 (S2) and cultured in the dark at 30° C. for 14 days.
Primary Differentiation: the screened resistant callus tissue was transferred to a differentiation medium and cultured for about 21 days at 30° C. under exposure to light for 19 hours.
Secondary Differentiation: new young shoots were selected and moved to a fresh differentiation medium and continued to be cultured for about 21 days.
When the new seedlings grew to about 2 cm, they were moved to a rooting medium and cultured for 3 to 4 weeks at 30° C. under exposure to light (for 16/8 h). […]

[2] = system: double-knockout Escherichia coli strain (EDCE); experiment: Growth of double-knockout E. coli (EDCE) transformed with Oryza sativa EPSPS genes in glyphosate media (Example 5); assay type: cell-based; settings: Example 5, FIG. 1
Source text: An Escherichia coli strain transformed with the Oryza sativa EPSPS mutant I-encoding gene according to Example 1 was used as Experimental Group 1 (having only the A155(138)T mutation).
An Escherichia coli strain transformed with the Oryza sativa EPSPS mutant II-encoding gene according to Example 2 was used as Experimental Group 3 (having the G111(96)A mutation and A155(138)T mutation).
An Escherichia coli strain transformed with a wild-type Oryza sativa EPSPS-encoding gene (SEQ ID NO: 14, encoding wild-type Oryza sativa EPSPS set forth in SEQ ID NO: 5) was used as a control group.
The glyphosate resistance of the Oryza sativa EPSPS mutant I-encoding gene and the encoded Oryza sativa EPSPS mutant I in Escherichia coli, and the glyphosate resistance of the Oryza sativa EPSPS mutant II-encoding gene and the encoded Oryza sativa EPSPS mutant II in Escherichia coli were verified by detecting the growth statuses of the transformed Escherichia coli in media containing different concentrations of glyphosate (0 mM, 1 mM, 2 mM, 20 mM) (media obtained by using M9 as a basal medium and then adding certain concentrations of antibiotics Spec (Spectinomycin), Gen (Gentamycin), and Amp (Ampicillin) and different concentrations of glyphosate).
Here, the Escherichia coli strain used was an double-knockout Escherichia coli strain (Escherichia coli strain DH5a from which an EPSPS gene and a C-P Lyase gene were knocked out, named EDCE, which may be prepared by a method with reference to Chinese Patent Application No. 2016103256926).
The detection was carried out by a method well known in the art, which was briefly described below. Gene encoding Oryza sativa EPSPS mutants was synthesized by a chemical synthesis method, wherein enzymatic digestion sites (Pacl and Sbfl) were introduced at both ends of the gene. The gene were enzymatically cleaved and then ligated in the presence of ligase to an expression vector (e.g., pADV5 vector having a structure as shown in FIG. 4) subjected to the same enzymatic digestion treatment, and then were transformed into the double-knockout Escherichia coli strain. After verification, positive clones were picked out and inoculated and grown in media containing glyphosate. The growth statuses were observed.

[3] = 1X dose glyphosate (1,060 g/ha), day 10 after spraying
[4] = 2X dose glyphosate (2,120 g/ha) on survivors of 1X, after another 10 days
[5] = 5X dose glyphosate (5,300 g/ha) on survivors of 2X, after additional 10 days
[6] = 20X dose glyphosate (21,200 g/ha) on survivors of 5X, after further 10 days
[7] = medium containing 1 mM glyphosate
[8] = medium containing 2 mM glyphosate
[9] = medium containing 20 mM glyphosate

Molecule	% ++&+++ (percentage of moderately and highly glyphosate resistant plants in total plants observed) [1, 3] [%]	plant number with resistance + (low glyphosate resistant) [1, 3]	plant number with resistance ++ (moderately glyphosate resistant) [1, 3]	plant number with resistance +++ (highly glyphosate resistant) [1, 3]	% ++&+++ (percentage of moderately and highly glyphosate resistant plants in total plants observed) [1, 4] [%]	plant number with resistance + (low glyphosate resistant) [1, 4]	plant number with resistance ++ (moderately glyphosate resistant) [1, 4]	plant number with resistance +++ (highly glyphosate resistant) [1, 4]	plant number with resistance − (non-glyphosate resistant, withered or dead) [1, 4]	% ++&+++ (percentage of moderately and highly glyphosate resistant plants in total plants observed) [1, 5] [%]	plant number with resistance + (low glyphosate resistant) [1, 5]	plant number with resistance ++ (moderately glyphosate resistant) [1, 5]	plant number with resistance +++ (highly glyphosate resistant) [1, 5]	plant number with resistance − (non-glyphosate resistant, withered or dead) [1, 5]	% ++&+++ (percentage of moderately and highly glyphosate resistant plants in total plants observed) [1, 6] [%]	plant number with resistance + (low glyphosate resistant) [1, 6]	plant number with resistance ++ (moderately glyphosate resistant) [1, 6]	plant number with resistance +++ (highly glyphosate resistant) [1, 6]	plant number with resistance − (non-glyphosate resistant, withered or dead) [1, 6]	growth status of transformed Escherichia coli [2, 7]	also measured
B1	70.0	1	7	14	36.7	4	1	10	15	36.7	4	7	4	15	13.3	7	4	0	19		
B2	0.0	1	0	0	0.0	0	0	0	31	0.0	0	0	0	31	0.0	0	0	0	31	could not grow	growth status of transformed Escherichia coli ([2]; medium containing 0 mM glyphosate): could grow; growth status of transformed Escherichia coli [2, 8]: could not grow; growth status of transformed Escherichia coli [2, 9]: could not grow; glyphosate resistance of transformed rice seedlings (in words) [1]: all had no resistance
B3	58.1	8	7	11	0.0	5	0	0	26	0.0	1	0	0	30	0.0	0	0	0	31	showed bacterial plaques	growth status of transformed Escherichia coli [2, 8]: could not grow; growth status of transformed Escherichia coli [2, 9]: could not grow; survival of transformed rice seedlings (in words) ([1]; 2× and 5× glyphosate doses): all of them survived; glyphosate resistance of transformed rice seedlings (in words) [1]: significantly better glyphosate resistance than that of R0
